Measurements as given in the supplement of paper PMC10724198.
± gives the standard deviation of the averaged measurements.

What was measured:
[1] = system: Saccharomyces cerevisiae; experiment: protein stability index of tFT-peptide fusion (C-terminal peptide) (PSI (0-1 scale)); higher = more stable (slower turnover)
Method: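 MPS profiling in S. cerevisiae of the tFT-X12 degron library: putative degron peptides plus stable controls, 12 aa, fused to the C-terminus of a sfGFP-mCherry timer. Cells are FACS-sorted into 8 mCherry/sfGFP bins and deep-sequenced. PSI runs from 0 (unstable) to 1 (stable). Backgrounds are wild type, das1Δ and doa10Δ at 30 °C, and wild type, das1Δ, cdc34-1 and cdc53-1 at 37 °C; 2-3 technical replicates each.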

[2] = system: Saccharomyces cerevisiae; experiment: as above; conditions: genetic background: wild type; temperature: 30 C
[3] = genetic background: cdc34-1, temperature: 37 C
[4] = genetic background: cdc53-1, temperature: 37 C
[5] = genetic background: das1 deletion, temperature: 30 C
[6] = genetic background: das1 deletion, temperature: 37 C
[7] = genetic background: doa10 deletion, temperature: 30 C
[8] = genetic background: wild type, temperature: 30 C
[9] = genetic background: wild type, temperature: 37 C
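Note: PSI is a weighted mean of sequencing reads over stability bins, variants kept only with over 10 reads, mCherry proximal and sfGFP distal, peptide attached via GGGS linker.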

Sequence | protein stability index [1, 3] | protein stability index [1, 4] | protein stability index [1, 5] | protein stability index [1, 6] | protein stability index [1, 7] | protein stability index [1, 8] | protein stability index [1, 9] | protein stability index [2]
FVVRVVCRLGFF | 0.2226 ± 0.0011 | 0.338 ± 0.014 | 0.218 ± 0.027 | 0.374 ± 0.02 | 0.182 ± 0.0026 | 0.215 ± 0.012 | 0.3396 ± 0.0013 | 0.325 ± 0.015
WRIDVTIVCLGY | 0.157 ± 0.03 | 0.256 ± 0.042 | 0.19 ± 0.033 | 0.3084 ± 0.0029 | 0.169 ± 0.01 | 0.202 ± 0.029 | 0.294 ± 0.019 | 0.3 ± 0.03
SCDMIVTLIQIR | 0.5 ± 0.047 | 0.53 ± 0.022 | 0.375 ± 0.033 | 0.539 ± 0.0092 | 0.35 ± 0.016 | 0.383 ± 0.02 | 0.527 ± 0.0017 | 0.409 ± 0.027
LLPLSLSLLLSV | 0.52 ± 0.015 | 0.541 ± 0.0062 | 0.432 ± 0.023 | 0.5638 ± 0.0033 | 0.414 ± 0.0064 | 0.429 ± 0.021 | 0.53568 ± 0.00041 | 0.453 ± 0.023
FYVIFRRACLSV | 0.281 ± 0.0084 | 0.32 ± 0.016 | 0.234 ± 0.03 | 0.3605 ± 0.0029 | 0.1681 ± 0.00044 | 0.195 ± 0.0079 | 0.299 ± 0.0099 | 0.292 ± 0.077
CLLLVISSLCSG | 0.416 ± 0.047 | 0.462 ± 0.073 | 0.336 ± 0.014 | 0.529 ± 0.023 | 0.261 ± 0.0032 | 0.301 ± 0.0098 | 0.4964 ± 0.0038 | 0.403 ± 0.011
LFGIDIVITYLL | 0.31 ± 0.011 | 0.459 ± 0.064 | 0.315 ± 0.036 | 0.441 ± 0.017 | 0.284 ± 0.015 | 0.304 ± 0.019 | 0.392 ± 0.026 | 0.398 ± 0.011
GFRMACYIRVLS | 0.337 ± 0.015 | 0.38 ± 0.017 | 0.245 ± 0.046 | 0.445 ± 0.0051 | 0.175 ± 0.01 | 0.182 ± 0.026 | 0.286 ± 0.02 | 0.296 ± 0.016
VVIWGMLLCGLG | 0.447 ± 0.0096 | 0.502 ± 0.009 | 0.353 ± 0.029 | 0.539 ± 0.026 | 0.326 ± 0.015 | 0.348 ± 0.018 | 0.487 ± 0.016 | 0.44 ± 0.029
SREPPTSTSSRH | 0.6388 ± 0.0031 | 0.709 ± 0.032 | 0.685 ± 0.012 | 0.669 ± 0.016 | 0.696 ± 0.025 | 0.703 ± 0.011 | 0.679 ± 0.0072 | 0.519 ± 0.13
GCVVVLIPVVSA | 0.333 ± 0.014 | 0.338 ± 0.0038 | 0.249 ± 0.038 | 0.415 ± 0.0087 | 0.215 ± 0.0045 | 0.266 ± 0.015 | 0.381 ± 0.0088 | 0.382 ± 0.022
LVSLLYFIVSLF | 0.516 ± 0.013 | 0.579 ± 0.033 | 0.473 ± 0.0089 | 0.566 ± 0.031 | 0.241 ± 0.018 | 0.254 ± 0.011 | 0.323 ± 0.014 | 0.311 ± 0.007
FCLSPILLLRFL | 0.268 ± 0.004 | 0.261 ± 0.012 | 0.355 ± 0.024 | 0.439 ± 0.0047 | 0.219 ± 0.022 | 0.174 ± 0.024 | 0.225 ± 0.012 | 0.213 ± 0.034
RLFMVLYRRFVL | 0.67 ± 0.052 | 0.72 ± 0.013 | 0.626 ± 0.019 | 0.716 ± 0.018 | 0.443 ± 0.015 | 0.45 ± 0.023 | 0.608 ± 0.016 | 0.491 ± 0.069
AVLVSGMVVWLV | 0.643 ± 0.053 | 0.709 ± 0.015 | 0.54 ± 0.025 | 0.672 ± 0.06 | 0.32 ± 0.013 | 0.357 ± 0.0096 | 0.563 ± 0.01 | 0.436 ± 0.032
ALVYVPACRLVV | 0.59 ± 0.049 | 0.624 ± 0.022 | 0.492 ± 0.021 | 0.634 ± 0.024 | 0.256 ± 0.011 | 0.303 ± 0.018 | 0.481 ± 0.018 | 0.4017 ± 0.0028
SWLLLVFPLSVC | 0.0423 ± 0.012 | 0.0634 ± 0.005 | 0.167 ± 0.03 | 0.231 ± 0.0058 | 0.0982 ± 0.0044 | 0.0994 ± 0.021 | 0.113 ± 0.0063 | 0.191 ± 0.016
FSYVGFFFLLGF | 0.417 ± 0.051 | 0.471 ± 0.0073 | 0.346 ± 0.021 | 0.494 ± 0.0069 | 0.392 ± 0.049 | 0.352 ± 0.025 | 0.467 ± 0.0053 | 0.414 ± 0.016
LSPYPLTFLFSQ | 0.693 ± 0.07 | 0.7506 ± 0.0056 | 0.648 ± 0.014 | 0.742 ± 0.0096 | 0.365 ± 0.014 | 0.393 ± 0.043 | 0.61752 ± 0.00015 | 0.51 ± 0.042
EGLRVSVCAWVM | 0.38 ± 0.043 | 0.467 ± 0.0075 | 0.313 ± 0.03 | 0.4385 ± 0.0017 | 0.253 ± 0.019 | 0.277 ± 0.013 | 0.421 ± 0.0079 | 0.339 ± 0.023
